We go through 13 molecules from patent US20240270821A1, “GIP/GLP1/GCG TRI-RECEPTOR AGONISTS AND USES THEREOF” (priority 2023, published 2024).

Test in all cases: cell-based or functional assay
Experiment [1] concerns the target human glucagon receptor (human) (UniProt P47871).
In experiment [2] the target is T1, human GIP receptor (human) (UniProt P48546).
T1 sequence (looked up): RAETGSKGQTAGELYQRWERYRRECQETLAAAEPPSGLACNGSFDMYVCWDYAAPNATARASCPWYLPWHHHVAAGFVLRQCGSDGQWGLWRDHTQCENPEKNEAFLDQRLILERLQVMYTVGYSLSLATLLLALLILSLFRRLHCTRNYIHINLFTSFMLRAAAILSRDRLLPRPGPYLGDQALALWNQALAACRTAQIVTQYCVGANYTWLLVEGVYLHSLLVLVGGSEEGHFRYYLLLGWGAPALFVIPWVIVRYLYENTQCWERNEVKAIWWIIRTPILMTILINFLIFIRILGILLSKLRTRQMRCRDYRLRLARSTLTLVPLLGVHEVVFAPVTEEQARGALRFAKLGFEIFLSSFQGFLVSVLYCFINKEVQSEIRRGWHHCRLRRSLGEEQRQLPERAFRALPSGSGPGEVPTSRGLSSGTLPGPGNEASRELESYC

A further experiment concerns the target hGLP-1R (Homo sapiens, UniProt P43220).

Chain of human glucagon receptor (human) (P47871 26-477): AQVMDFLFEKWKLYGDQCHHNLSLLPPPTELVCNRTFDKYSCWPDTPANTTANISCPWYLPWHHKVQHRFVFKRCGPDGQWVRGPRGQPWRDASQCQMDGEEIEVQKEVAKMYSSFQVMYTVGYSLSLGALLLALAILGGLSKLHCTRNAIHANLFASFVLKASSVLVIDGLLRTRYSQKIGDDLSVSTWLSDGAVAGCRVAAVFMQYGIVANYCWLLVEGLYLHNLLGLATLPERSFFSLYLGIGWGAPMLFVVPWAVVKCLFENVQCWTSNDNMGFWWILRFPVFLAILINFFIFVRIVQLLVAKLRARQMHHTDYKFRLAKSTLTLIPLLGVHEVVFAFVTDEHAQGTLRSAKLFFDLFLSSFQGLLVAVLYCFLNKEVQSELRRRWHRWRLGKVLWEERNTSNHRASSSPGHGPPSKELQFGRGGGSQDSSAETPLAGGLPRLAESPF
Chain of hGLP-1R (P43220 24-463): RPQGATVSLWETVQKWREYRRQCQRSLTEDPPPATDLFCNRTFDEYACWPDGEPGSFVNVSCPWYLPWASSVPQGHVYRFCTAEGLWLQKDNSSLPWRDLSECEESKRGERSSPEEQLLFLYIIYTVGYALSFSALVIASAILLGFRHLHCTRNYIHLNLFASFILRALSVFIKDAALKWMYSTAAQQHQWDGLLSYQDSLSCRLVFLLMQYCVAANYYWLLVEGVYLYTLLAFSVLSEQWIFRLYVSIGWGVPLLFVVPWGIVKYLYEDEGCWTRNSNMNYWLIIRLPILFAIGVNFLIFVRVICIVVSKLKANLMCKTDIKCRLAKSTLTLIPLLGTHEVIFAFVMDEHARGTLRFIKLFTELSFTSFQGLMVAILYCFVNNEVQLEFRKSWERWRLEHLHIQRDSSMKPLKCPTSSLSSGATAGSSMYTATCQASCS

B1: Example 933 (peptide)
chain: YXQGTFTSDXSXXLDXKAQXAFIEXLLEGGPSSGAPPPSGS
modifications: synthetic construct; SITE 2: note = 2-Aminoisobutyric Acid; SITE 10: note = 3-(4-Pyridyl)-L-alanine; SITE 12: note = L-ornithine; SITE 13: note = alpha-methyl-leucine; SITE 16: note = L-ornithine; SITE 17: note = Lysine is chemically modified through conjugation of the epsilon-amino group of the Lys
Turning to B1, the Relative cAMP EC50 in experiment [1] stood at 5.51 nM; in experiment [2], 0.259 nM; with hGLP-1R, 2.32 nM. The cAMP Rel EC50 (1% HSA) in experiment [1] came out at 1530 nM; in experiment [2], 35.1 nM; in the experiment with hGLP-1R it was 557 nM.

B2: Example 953 (peptide)
chain: YXQGTFTSDXSRXLDKKAQXAFIEXLIEGGPSSGAPPPSGS
modifications: Aib, 4Pal, αMeL, Me4Pal; lipidated Lys; C-terminal amide; synthetic construct; SITE 2: note = 2-Aminoisobutyric Acid; SITE 10: note = 3-(4-Pyridyl)-L-alanine; SITE 13: note = alpha-methyl-leucine; SITE 17: note = Lysine is chemically modified through conjugation of the epsilon-amino group of the Lysine side chain with (gamma-Glu)2-CO-(CH2)16-CO2H; SITE 20:
For B2, the figures for the cAMP Rel EC50, nM (1% HSA) (in experiment [1]; in experiment [2]; with hGLP-1R) were 275 nM, 10.9 nM and 347 nM, respectively.

B3: Example 934 (peptide)
chain: YXQGTFTSDXSQXLDKKAQXQFIEXLIEGGPSSGAPPPSGS
modifications: non-natural residues, acylated Lys ((γGlu)2-C18 diacid), C-terminal amide; synthetic construct; SITE 2: note = 2-Aminoisobutyric Acid; SITE 10: note = 3-(4-Pyridyl)-L-alanine; SITE 13: note = alpha-methyl-leucine; SITE 17: note = Lysine is chemically modified through conjugation of the epsilon-amino group of the Lysine side chain with (gamma-Glu)2-CO-(CH2)16-CO2H; SITE 20:
Turning to B3, the cAMP Rel EC50 (1% HSA) in experiment [1] was 1380 nM; in experiment [2] it was 28.1 nM; in the experiment with hGLP-1R, 175 nM.

B4: Example 949 (peptide)
chain: YXQGTFTSDXSXXLDKKAQXAFIEXLIEGGPSSGAPPPSGS
modifications: Aib, 4Pal, Orn, Me4Pal; acylated lysine; amide; synthetic construct; SITE 2: note = 2-Aminoisobutyric Acid; SITE 10: note = 3-(4-Pyridyl)-L-alanine; SITE 12: note = L-ornithine; SITE 13: note = alpha-methyl-leucine; SITE 17: note = Lysine is chemically modified through conjugation of the epsilon-amino group of the Lysine side chain with (2-[2-(2-
Take B4: the cAMP Rel EC50, nM (1% HSA) in experiment [1] is 317 nM; in experiment [2] it was 26 nM; with hGLP-1R, 721 nM.

B5: Example 948 (peptide)
chain: YXQGTFTSDXSQXLDKKAQXAFIEXLIEGGPSSGAPPPSGS
modifications: Aib, 4Pal, Me4Pal, alpha-methyl-Leu, lipidated Lys, amide; synthetic construct; SITE 2: note = 2-Aminoisobutyric Acid; SITE 10: note = 3-(4-Pyridyl)-L-alanine; SITE 13: note = alpha-methyl-leucine; SITE 17: note = Lysine is chemically modified through conjugation of the epsilon-amino group of the Lysine side chain with (2-[2-(2-Amino-ethoxy)-ethoxy]-acetyl)
As for B5, the results for the cAMP Rel EC50 (1% HSA) (in experiment [1]; in experiment [2]; in the experiment with hGLP-1R) were 537 nM, 22.9 nM and 304 nM, respectively.

B6: Example 952 (peptide)
chain: YXQGTFTSDXSXXLDKKAQXAFIEXLIEGGPSSGAPPPSGS
modifications: acylated Lys, C-terminal amide, non-natural residues; synthetic construct; SITE 2: note = 2-Aminoisobutyric Acid; SITE 10: note = 3-(4-Pyridyl)-L-alanine; SITE 12: note = L-ornithine; SITE 13: note = alpha-methyl-leucine; SITE 17: note = Lysine is chemically modified through conjugation of the epsilon-amino group of the Lysine side chain with (gamma-Gl)
Regarding B6, the figures for the cAMP Rel EC50, nM (1% HSA) (in experiment [1]; in experiment [2]; with hGLP-1R) were 266 nM, 16.6 nM and 439 nM, respectively.

B7: Example 951 (peptide)
chain: YXQGTFTSDXSQXLDKKAQXAFIEXLIEGGPSSGAPPPSGS
modifications: Aib, 4Pal, Me4Pal, αMeL; lipidated Lys; C-terminal amide; synthetic construct; SITE 2: note = 2-Aminoisobutyric Acid; SITE 10: note = 3-(4-Pyridyl)-L-alanine; SITE 13: note = alpha-methyl-leucine; SITE 17: note = Lysine is chemically modified through conjugation of the epsilon-amino group of the Lysine side chain with (gamma-Glu)2-CO-(CH2)16-CO2H; SITE 20:
In the case of B7, the results for the cAMP Rel EC50, nM (1% HSA) (in experiment [1]; in experiment [2]; with hGLP-1R) were 657 nM, 18.2 nM and 382 nM, respectively.

B8: Example 950 (peptide)
chain: YXQGTFTSDXSRXLDKKAQXAFIEXLIEGGPSSGAPPPSGS
modifications: non-natural residues, AEEA-γGlu-C18 diacid lysine acylation, C-terminal amide; synthetic construct; SITE 2: note = 2-Aminoisobutyric Acid; SITE 10: note = 3-(4-Pyridyl)-L-alanine; SITE 13: note = alpha-methyl-leucine; SITE 17: note = Lysine is chemically modified through conjugation of the epsilon-amino group of the Lysine side chain with (2-[2-(2-Amino-ethoxy)-ethoxy]-acetyl)
As for B8, the figures for the cAMP Rel EC50, nM (1% HSA) (in experiment [1]; in experiment [2]; with hGLP-1R) were 327 nM, 18.1 nM and 328 nM, respectively.

B9: Example 968 (peptide)
chain: YXQGTFTSDXSQXLDKKAQXAFIEYLIAGGPSSGEPPPSGS
modifications: synthetic construct; SITE 2: note = 2-Aminoisobutyric Acid; SITE 10: note = 3-(4-Pyridyl)-L-alanine; SITE 13: note = alpha-methyl-leucine; SITE 17: note = Lysine is chemically modified through conjugation of the epsilon-amino group of the Lysine side chain with (gamma-Glu)2-CO-(CH2)16-CO2H; SITE 20:
Consider B9, for which the Relative cAMP EC50 was found to be 4.72 nM in experiment [1], 0.0928 nM in experiment [2] and 1.04 nM with hGLP-1R. Besides, the cAMP Rel EC50, nM (1% HSA) came to 625 nM in experiment [1], 11.7 nM in experiment [2] and 103 nM with hGLP-1R.

B10: Example 969 (peptide)
chain: YXQGTFTSDXSQXLDKKAQXAFIEYLIAGGPSSGAPPPEGS
modifications: synthetic construct; SITE 2: note = 2-Aminoisobutyric Acid; SITE 10: note = 3-(4-Pyridyl)-L-alanine; SITE 13: note = alpha-methyl-leucine; SITE 17: note = Lysine is chemically modified through conjugation of the epsilon-amino group of the Lysine side chain with (gamma-Glu)2-CO-(CH2)16-CO2H; SITE 20:
As for B10, the Relative cAMP EC50 in experiment [1] stood at 5.48 nM; in experiment [2] it was 0.142 nM; in the experiment with hGLP-1R it was 1.21 nM. Moreover, the cAMP Rel EC50, nM (1% HSA) in experiment [1] amounted to 660 nM; in experiment [2] it was 12.6 nM; with hGLP-1R, 113 nM.

B11: Example 91 (peptide)
chain: YXQGTFTSDFSXXLDKKAQXAFIEYLLAGGPSSGAPPPSGEX
modifications: synthetic construct; SITE 2: note = 2-Aminoisobutyric Acid; SITE 12: note = L-ornithine; SITE 13: note = alpha-methyl-leucine; SITE 17: note = Lysine is chemically modified through conjugation of the epsilon-amino group of the Lysine side chain with (2-[2-(2-Amino-ethoxy)-ethoxy]-acetyl)-(gamma-Glu)
With B11, the figures for the Relative cAMP EC50 (in experiment [1]; in experiment [2]; with hGLP-1R) were 9.13 nM, 0.243 nM and 3.39 nM, respectively. The results for the cAMP Rel EC50, nM (in the presence of 1% HSA) (in experiment [1]; in experiment [2]; with hGLP-1R) were 1200 nM, 23.9 nM and 356 nM, respectively.

B12: Example 966 (peptide)
chain: YXQGTFTSDXSXXLDKKAQXAFIEXLIEGGPSSGAPPPSGSE
modifications: acylated Lys (γGlu)2-C18 diacid; non-natural residues; C-terminal amide; synthetic construct; SITE 2: note = 2-Aminoisobutyric Acid; SITE 10: note = 3-(4-Pyridyl)-L-alanine; SITE 12: note = L-ornithine; SITE 13: note = alpha-methyl-leucine; SITE 17: note = Lysine is chemically modified through conjugation of the epsilon-amino group of the Lysine side chain with (gamma-Gl)
As for B12, the cAMP Rel EC50, nM (1% HSA) in experiment [1] came out at 581 nM; in experiment [2], 35.9 nM; with hGLP-1R, 257 nM.

B13: Example 954 (peptide)
chain: YXQGTFTSDXSQXLDKKAQXAFIEXLIEGGPSSGAPPPSGSEE
modifications: non-natural residues; Lys acylated C18 diacid; C-terminal amide; synthetic construct; SITE 2: note = 2-Aminoisobutyric Acid; SITE 10: note = 3-(4-Pyridyl)-L-alanine; SITE 13: note = alpha-methyl-leucine; SITE 17: note = Lysine is chemically modified through conjugation of the epsilon-amino group of the Lysine side chain with (2-[2-(2-Amino-ethoxy)-ethoxy]-acetyl)
On to B13, for which the cAMP Rel EC50, nM (1% HSA) in experiment [1] turned out to be 450 nM; in experiment [2], 35.3 nM; in the experiment with hGLP-1R it was 357 nM.
